In article PMC5642108:

T1: A box (human, UniProt P09429 1-85, C23S;C45S;S35C)
T1 sequence: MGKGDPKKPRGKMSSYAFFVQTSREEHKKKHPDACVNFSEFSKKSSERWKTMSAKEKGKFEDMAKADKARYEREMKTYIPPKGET

B1: 18 bp dsDNA (EMSA) (dsDNA)
DNA 1: CAGGCTATAAAAGGGACG
DNA 2: CGTCCCTTTTATAGCCTG
B2: smFRET DNA (18 bp with 19 nt 3' overhang) (dsDNA)
DNA 1: CAGGCTATAAAAGGGACG
DNA 2: CGTCCCTTTTATAGCCTGATACAAGCAGCAGTCACCA

Tests used:
[1] = molecular target: T2, FL HMGB1 (human, UniProt P09429 1-215, C23S;C45S;C106S;E204C); test: EMSA
Target sequence in this assay (P09429 whole entry C23S/C45S/C106S/E204C): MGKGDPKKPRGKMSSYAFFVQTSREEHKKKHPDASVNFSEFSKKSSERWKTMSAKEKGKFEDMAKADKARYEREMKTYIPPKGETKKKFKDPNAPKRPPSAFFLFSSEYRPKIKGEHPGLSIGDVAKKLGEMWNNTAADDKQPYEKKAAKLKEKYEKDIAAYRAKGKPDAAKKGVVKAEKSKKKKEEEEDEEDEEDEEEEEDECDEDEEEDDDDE

[2] = molecular target: T3, AB (HMGB1 without C-terminal tail) (human, UniProt P09429 1-166, C23S;C45S;C106S;S35C); test: EMSA
[3] = molecular target: T1, A box; test: smFRET
[4] = molecular target: T2, FL HMGB1; test: smFRET
[5] = molecular target: AB-F38A (human, UniProt P09429 1-166, C23S;F38A;C45S;C106S;S35C); test: smFRET
[6] = molecular target: T3, AB (HMGB1 without C-terminal tail); test: smFRET
[7] = molecular target: B box (human, UniProt P09429 83-166, C106S;A137C); test: smFRET
Sequence of B box (P09429 83-166 C106S/A137C): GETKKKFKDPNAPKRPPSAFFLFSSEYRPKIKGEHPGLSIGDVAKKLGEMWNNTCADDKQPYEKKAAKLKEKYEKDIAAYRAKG

Row | Binder | Kd [1] | Kd [2] | binding result [3] | binding result [4] | binding result [5] | binding result [6] | binding result [7]
1 | B1 | 10 nM | 5 nM |  |  |  |  | 
2 | B2 |  |  | binds | binds | binds | binds | binds
